The values that follow come from US8198236B2, “Methods and compositions for the treatment of cancer” (Washington University, priority 2007, dated 2012).

For one data set, the target named is T1, LRP6 (Homo sapiens, UniProt O75581).
T1 construct: expressed in transfected cells; host or cells: human HT1080 cells, retroviral vector pLNCX2
Nature of the data set: LRP6-mediated 125I-DKK1 degradation in LRP6-transduced HT1080 cells. In kind it is cell-based. The note with it: 500 nM unlabeled, 4 hours at 37° C. As for the experimental part:
Ligand degradation was performed using the methods as described in Li, Y., et al., J. Biol. Chem. 275: 17187-17194, 2000. Briefly, 2×10^5 cells were seeded into 12-well dishes 1 day prior to assay. Pre-warmed assay buffer (minimal Eagle's medium containing 0.6% BSA with radioligand, 0.6 ml/well) was added to cell monolayers in the absence or the presence of unlabeled 500 nM RAP or 500 nM Mesd, followed by incubation for 4 hours at 37° C. Thereafter, the medium overlying the cell monolayers was removed and proteins were precipitated by addition of BSA to 10 mg/ml and trichloroacetic acid to 20%. […] After each time point, the plates were quickly placed on ice and the assay buffer was replaced with cold stop/strip solution. ^125I-anti-HA IgG that remained on the cell surface was stripped by incubation of cell monolayers with cold stop/strip solution for a total of 20 minutes (0.75 ml for 10 minutes, twice) and counted. Cell monolayers were then solubilized with low-SDS lysis buffer and counted. […] The fraction of internalized ^125I-anti-HA IgG after each time point was calculated and plotted.
RAP is a receptor antagonist for members of the LDLR family, and is able to inhibit the binding of most known ligands of the LDLR family members. […] Cell-surface-bound Myc-tagged DKK proteins were fixed and detected by immunofluorescence staining with anti-Myc antibody. […]

The target of a further data set is LRP5 (Homo sapiens, UniProt O75197). Nature of the data set: 125I-DKK1 binding to LRP5. The note with it: FIG. 10B. As to the method: In order to investigate the binding of Mesd polypeptide and an Mesd oligopeptide to either LRP5 or LRP6, binding assays were performed using ^125I-Mesd or ^125I-DKK1 (FIG. 10).
LRP5, sequence (O75197 32-1615): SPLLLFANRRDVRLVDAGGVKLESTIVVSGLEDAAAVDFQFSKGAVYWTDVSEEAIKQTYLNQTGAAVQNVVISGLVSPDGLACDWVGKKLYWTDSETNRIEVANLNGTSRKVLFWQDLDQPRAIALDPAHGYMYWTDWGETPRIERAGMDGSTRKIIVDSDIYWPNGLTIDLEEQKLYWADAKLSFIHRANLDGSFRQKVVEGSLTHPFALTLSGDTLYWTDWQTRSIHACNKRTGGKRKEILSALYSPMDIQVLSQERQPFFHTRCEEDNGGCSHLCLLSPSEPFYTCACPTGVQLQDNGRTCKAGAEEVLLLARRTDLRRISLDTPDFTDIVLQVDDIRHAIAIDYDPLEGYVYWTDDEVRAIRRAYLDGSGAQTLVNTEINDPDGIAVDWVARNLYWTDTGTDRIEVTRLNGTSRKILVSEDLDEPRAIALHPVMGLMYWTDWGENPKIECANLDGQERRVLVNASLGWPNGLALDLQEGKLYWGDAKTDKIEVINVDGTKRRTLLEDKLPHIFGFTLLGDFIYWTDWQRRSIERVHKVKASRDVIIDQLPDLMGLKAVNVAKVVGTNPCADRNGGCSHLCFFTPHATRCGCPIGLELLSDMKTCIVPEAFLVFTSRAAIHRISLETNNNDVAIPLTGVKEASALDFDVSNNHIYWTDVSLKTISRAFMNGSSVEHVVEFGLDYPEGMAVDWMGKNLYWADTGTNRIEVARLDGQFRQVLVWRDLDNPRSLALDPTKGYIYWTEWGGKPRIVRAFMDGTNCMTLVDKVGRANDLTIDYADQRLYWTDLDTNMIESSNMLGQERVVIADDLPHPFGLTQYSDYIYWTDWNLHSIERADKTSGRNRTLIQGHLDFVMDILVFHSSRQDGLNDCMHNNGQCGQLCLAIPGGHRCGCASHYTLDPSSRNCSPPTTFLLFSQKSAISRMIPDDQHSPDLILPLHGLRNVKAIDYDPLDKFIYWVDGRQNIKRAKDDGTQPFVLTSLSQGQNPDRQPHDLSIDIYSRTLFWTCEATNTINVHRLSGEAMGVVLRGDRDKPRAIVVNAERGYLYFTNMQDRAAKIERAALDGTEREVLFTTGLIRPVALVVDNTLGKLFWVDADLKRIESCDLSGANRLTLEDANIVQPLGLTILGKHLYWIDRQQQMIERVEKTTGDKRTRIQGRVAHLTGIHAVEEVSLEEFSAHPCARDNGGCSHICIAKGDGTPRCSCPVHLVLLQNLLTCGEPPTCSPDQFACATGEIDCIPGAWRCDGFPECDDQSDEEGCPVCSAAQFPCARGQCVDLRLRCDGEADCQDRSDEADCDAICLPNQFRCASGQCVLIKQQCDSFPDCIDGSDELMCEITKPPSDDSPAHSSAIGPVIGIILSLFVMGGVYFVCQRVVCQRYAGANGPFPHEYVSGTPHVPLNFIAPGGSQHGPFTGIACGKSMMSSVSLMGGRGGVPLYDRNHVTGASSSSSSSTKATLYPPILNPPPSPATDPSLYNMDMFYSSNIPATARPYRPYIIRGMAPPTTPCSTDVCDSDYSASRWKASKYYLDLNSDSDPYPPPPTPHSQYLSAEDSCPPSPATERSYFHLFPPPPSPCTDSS
Data set [1] can be described thus: Mesd in serum after a single i.p. dose (Western blot quantification). The data set is classed as in vivo, mice. On the technique in general: A western blot detects proteins with antibodies after separation by electrophoresis.
Protocol: In experiments shown in FIG. 23, pharmacokinetics of Mesd peptide and Mesd were examined. FIG. 23A: Amount of Mesd in serum following a single dose of protein administration. Mice were dosed at 5, 10, 20 mg/kg of Mesd via i.p. and the serum samples were collected from individual mice at the indicated time points. The levels of Mesd in serum were quantified by comparison to Mesd pure protein with known concentrations in Western blot analysis. Values are the average of triple determinations with S.D. indicated by error bars. […] Samples were obtained by terminal bleed under anesthesia at each of the indicated time points (N=3 animals per time point). Radioactivity was measured using a gamma counter and DPM converted to mass units/mL blood using the specific activity (DPM/mass) of each test substance. Data are plotted as mass U/mL of test substance with standard deviation indicated by error bars.
Data set [2] is described as follows: Side effects on non-tumor tissues of treated mice (H&E staining, x-ray, weight).
Protocol: Hemotoxylin and eosin (H&E) staining was performed on tumor xenograft tissue, skin and intestine harvested at the end of Mesd treatment.
FIG. 24D: H&E staining of tail vertebrae treated with PBS, Mesd or Mesd peptide.

T1 sequence (O75581 20-1613): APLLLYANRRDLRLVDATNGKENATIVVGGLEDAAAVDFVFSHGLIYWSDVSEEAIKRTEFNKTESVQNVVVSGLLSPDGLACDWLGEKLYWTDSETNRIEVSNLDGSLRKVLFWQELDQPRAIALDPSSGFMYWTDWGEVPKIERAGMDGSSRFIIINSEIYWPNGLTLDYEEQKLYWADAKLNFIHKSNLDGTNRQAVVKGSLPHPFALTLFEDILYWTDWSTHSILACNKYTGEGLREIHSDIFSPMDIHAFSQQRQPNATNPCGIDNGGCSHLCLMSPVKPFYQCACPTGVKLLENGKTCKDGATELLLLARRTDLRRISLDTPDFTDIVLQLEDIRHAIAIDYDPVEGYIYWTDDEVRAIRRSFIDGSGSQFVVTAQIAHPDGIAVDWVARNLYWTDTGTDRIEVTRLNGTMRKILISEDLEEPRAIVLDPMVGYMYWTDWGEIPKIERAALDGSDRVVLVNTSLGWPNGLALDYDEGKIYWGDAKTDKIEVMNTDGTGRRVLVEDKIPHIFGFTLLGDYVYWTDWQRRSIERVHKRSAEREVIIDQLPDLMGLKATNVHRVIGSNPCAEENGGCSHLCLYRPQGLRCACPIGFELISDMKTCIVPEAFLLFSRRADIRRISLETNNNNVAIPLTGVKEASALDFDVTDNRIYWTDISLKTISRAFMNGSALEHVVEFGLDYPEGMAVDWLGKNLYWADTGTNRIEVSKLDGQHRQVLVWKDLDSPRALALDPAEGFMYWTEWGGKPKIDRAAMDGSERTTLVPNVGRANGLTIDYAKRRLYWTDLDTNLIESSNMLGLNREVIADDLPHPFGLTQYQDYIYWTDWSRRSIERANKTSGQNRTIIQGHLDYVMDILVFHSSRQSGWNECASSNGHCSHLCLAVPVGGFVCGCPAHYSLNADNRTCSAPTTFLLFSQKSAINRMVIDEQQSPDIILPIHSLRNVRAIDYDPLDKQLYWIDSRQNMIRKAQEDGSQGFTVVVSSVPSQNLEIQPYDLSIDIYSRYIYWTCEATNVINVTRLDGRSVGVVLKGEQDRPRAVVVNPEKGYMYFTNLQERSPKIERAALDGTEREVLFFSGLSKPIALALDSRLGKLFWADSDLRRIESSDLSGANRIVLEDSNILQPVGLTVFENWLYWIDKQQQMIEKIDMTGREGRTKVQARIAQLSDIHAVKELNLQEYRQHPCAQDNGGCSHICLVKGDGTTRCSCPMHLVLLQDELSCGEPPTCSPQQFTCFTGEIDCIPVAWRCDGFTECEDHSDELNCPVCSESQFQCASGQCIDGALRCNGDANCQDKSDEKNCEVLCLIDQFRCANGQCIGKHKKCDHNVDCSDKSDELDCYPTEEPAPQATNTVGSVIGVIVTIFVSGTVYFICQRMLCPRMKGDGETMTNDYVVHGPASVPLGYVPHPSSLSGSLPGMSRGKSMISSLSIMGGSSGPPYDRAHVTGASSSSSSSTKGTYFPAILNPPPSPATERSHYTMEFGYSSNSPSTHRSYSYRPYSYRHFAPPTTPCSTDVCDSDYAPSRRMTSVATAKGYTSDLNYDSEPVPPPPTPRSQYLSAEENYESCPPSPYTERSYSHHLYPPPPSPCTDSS

B1: Mesd: Recombinant full-length mouse Mesd expressed in E. coli, N-terminal polyhistidine tail, lacking the signal peptide (protein)
chain: ADTPGEATPPPRKKKDIRDYNDADMARLLEQWEKDDDIEEGDLPEHKRPSAPIDFSKLDPGKPESILKMTKKGKTLMMFVTVSGNPTEKETEEITSLWQGSLFNANYDVQRFIVGSDRAIFMLRDGSYAWEIKDFLVSQDRCAEVTLEGQMYPGKGGGSKEKNKTKPEKAKKKEGDRKPRASKEDNRAGSRREDL
modifications: left off: small tags and cut ends
notes: Recombinant full-length mouse Mesd expressed in E. coli, N-terminal polyhistidine tail, lacking the signal peptide
On to B1, for which the “Effect on increased 125I-DKK1 degradation of LRP6-expressing HT1080 cells” value in the data set with LRP6 is “abolished”. For the same molecule, in the data set with LRP5, the “Reduction in binding of 125I-DKK1 to LRP5” value was “small but significant reduction”. For the same molecule, in data set [1], the Absorption after dosing entry is on record as “rapidly absorbed”. Also, in data set [2] (FIG. 17E), the “Adverse effect on small intestine (gross examination)” value was “no significant adverse effect”. Also, the “Architecture of gastrointestinal compartments and skin (H&E)” value in data set [2] (after 10 treatments) was “morphologically normal”. Further, the “Bone lesions or outgrowths in tail vertebrae” value in data set [2] (conditions in which antitumor efficacy was achieved) is “no significant bone lesions or outgrowths”. Besides, the “General health and body weight of treated mice” value in data set [2] (mouse, in vivo) is “grossly healthy and maintain their weights”.
